From PMC3728706

B1: Tip1 PDZ domain (domain or fragment)
chain: RVEIHKLRQGENLILGFSIGGGIDQDPSQNPFSEDKTDKGIYVTRVSEGGPAEIAGLQIGDKIMQVNGWDMTMVTHDQARKRLTKRSEEVVRLLVTRQ
B2: Shank3 PDZ domain (domain or fragment)
chain: VAILQKRDHEGFGFVLRGAKAETPIEEFTPTPAFPALQYLESVDVEGVAWRAGLRTGDFLIEVNGVNVVKVGHKQVVGLIRQGGNRLVMKVVSVT
B3: PDZ11 PDZ domain (domain or fragment)
chain: IVTLKKPPGAQLGFNIRGGKASQLGIFISKVIPDSDAHRAGLQEGDQVLAVNDVDFQDIEHSKAVEILKTAREISMRVRFFPY
B4: Tiam2 PDZ domain (domain or fragment)
chain: DVQLTKTGDMTDFGFAVTVQVDEHQHLNRIFISDVLPDSLAYGGGLRKGNEITSLNGEPVSDLDIQQMEALFSEKSVGLTLVARPVT
B5: Synip PDZ domain (domain or fragment)
chain: AFRVITVTKETGLGLKILGGINRNEGPLVYIHEVIPGGDCYKDGRLKPGDQLVSINKESMIGVSFEEAKSIITRAKLRSESPWEIAF

Target: fluorescently labeled peptide derived from the C-terminus of β-catenin
Assay: fluorescence polarisation

Row | Molecule | Kd [µM]
1 | PDZk3 PDZ domain (domain or fragment) | 207
2 | Magi-3 PDZ domain (domain or fragment) | 1
3 | LIN7 PDZ domain (from UniProt O88951 93-175) (domain or fragment) | 25
4 | PSD95 PDZ domain (domain or fragment) | 31
5 | Magi-1 PDZ domain 6 (domain or fragment) | 1
6 | Grip1 PDZ domain (domain or fragment) | 369
7 | PTP-BL PDZ domain (domain or fragment) | 79
8 | Erbin PDZ domain (from UniProt Q80TH2 1311-1400) (domain or fragment) | 6
9 | PDZk7 PDZ domain (domain or fragment) | 103
10 | Magi-2 PDZ domain (domain or fragment) | 0.6
11 | Scrib PDZ domain (domain or fragment) | 13
12 | SAP97 PDZ domain (domain or fragment) | 342
13 | NHERF-1 PDZ domain (domain or fragment) | 20
14 | Pard3 PDZ domain (domain or fragment) | 100
15 | B1 | 0.3
16 | B2 | 9
17 | B3 | 333
18 | B4 | 1
19 | B5 | 276
